According to patent US20120165265A1, “Calcium Signaling Modulators Involving STIM and ORAI Proteins” (priority 2009, published 2012):
One block for each substance: values may come before it.

Columns and labels:
Orai1 [1] = molecular target: T1, Orai1 (Homo sapiens, UniProt Q96D31); assay: Store-operated Ca2+ entry by STIM1 variants, single cell Ca2+ imaging; assay type: cell-based; set-up: expressed in transfected cells; host or cells: HEK 293; details: coexpressed with eGFP-Orai1, TG
Method: For FIG. 7, cells were loaded as above with 2 μM fura-2/AM for 25 min. Ratiometric Ca2+ imaging was performed with 350 and 380 nm excitation in 2 mM Ca2+ Ringer's solution on an Axiovert 35 inverted microscope using a VideoProbe imaging system as described (Bautista et al., 2002). mCherry-positive cells were identified using a 540±12 nm excitation and a 580LP emission filter (Chroma).
(§1) The Role of CAD in Orai1 Binding and Activation by STIM1. A key question is whether CAD is responsible for the clustering and activation of CRAC channels by full-length STIM1 following store depletion. To address this, we measured the ability of mCherry-tagged STIM1 variants containing CAD mutations to co-cluster with eGFP-Orai1 and activate Ca^2+ entry in response to TG (FIG. 7). STIM1-Orai1 colocalization was quantified as the fraction of total STIM1 and Orai1 fluorescence that was recruited to regions of high fluorescence covariance (FIG. 13), while Ca^2+ influx was measured with single cell Ca^2+ imaging. For each set of experiments we measured mCherry and GFP fluorescence to confirm that differences in the activity of the various STIM1 constructs were not due to differences in expression level (FIG. 14).

Orai1 [2] = molecular target: T1, Orai1; assay: Puncta formation of STIM1 variants by confocal microscopy in HEK 293 cells; assay type: cell-based; set-up: expressed in transfected cells; host or cells: HEK 293; details: coexpressed with eGFP-Orai1, TG
Method: (§2) Confocal Microscopy. 6 h after transfection, HEK 293 cells were plated onto sterilized coverslips coated with poly-D-lysine and maintained in complete DMEM for an additional 12-18 h before imaging in Ringer's solution containing (in mM): 155 NaCl, 4.5 KCl, 2 CaCl2, 1 MgCl2, 10 D-glucose, and 5 Na-Hepes, pH 7.4. To deplete stores, cells were treated with 1 μM TG in Ca2+-free Ringer's (prepared by substituting 2 mM MgCl2 and 1 mM EGTA for CaCl2) for 10 min. eGFP and mCherry were excited simultaneously at 488 and 594 nm, respectively, on a Leica SP2 AOBS inverted confocal microscope equipped with a PL APO 100×/NA 1.4 oil immersion objective. Fluorescence emissions were collected at 615-840 nm (mCherry) and 510-570 nm (eGFP). All experiments were performed at 22-25° C.
Quantitation of STIM1 and Orai1 Recruitment into Puncta. Colocalization of eGFP-Orai1 and mCh-STIM1 variants was analyzed from background-corrected confocal image pairs acquired before and after store depletion. Puncta have two defining characteristics: (1) because they are sites of accumulation, STIM1 and Orai1 fluorescence intensities in puncta are greater than the respective mean intensities measured across the entire cell, and (2) because STIM1 and Orai1 co-localize in puncta, their fluorescence covariance is high. For each STIM1/Orai1 image pair, we computed the covariance of each pixel as (Si−s) (Oi−o), where Si and Oi are the STIM1 and Orai1 fluorescence of pixel i, and s and o are the mean STIM1 and Orai1 fluorescence of the entire cell. A threshold criterion for puncta was set using the pre-depletion image pair. The mean and s.d. of the covariance values were calculated from pixels for which both Si>s and Oi>o, and a covariance threshold was set equal to the mean+2×s.d. of this pre-depletion condition. Binary masks were applied to the pre- and post-depletion image pairs to isolate pixels for which Si>s and Oi>o and whose covariance exceeds the pre-depletion threshold. […] Integrated STIM1 or Orai1 puncta intensity was calculated from the masked images and expressed as a fraction of the total fluorescence intensity in the unmasked image. […]
as §1, with “A key question is whether CAD is responsible for the clustering and activation of CRAC channels by full-length STIM1 following store depletion.” left out

Orai1 [3] = molecular target: T1, Orai1; assay: Whole-cell patch clamp recording of ICRAC in transfected HEK 293 cells; assay type: cell-based; set-up: expressed in transfected cells; host or cells: HEK 293
Method: Electrophysiology. HEK 293 cells were transfected 8-24 h prior to electrophysiology experiments with STIM1- and Orai1-derived constructs in a 1:1 mass ratio using Lipofectamine 2000. […] ICRAC in cells cultured without LaCl3 was similar to that in cells cultured with LaCl3, but most cells without LaCl3 died soon after break-in.
Currents were recorded using standard whole-cell patch clamp techniques (Prakriya and Lewis, 2001). Pipettes of resistance 2-5 MΩ were filled with an internal solution containing (in mM) 150 Cs aspartate, 8 MgCl2, 10 EGTA, and 10 HEPES (pH 7.2 with CsOH). Currents were sampled at 5 kHz and filtered at 2 kHz, and all voltages were corrected for the junction potential of the pipette solution relative to Ringer's in the bath (−13 mV).
Patch-clamp Experiments. Pipette-membrane seals were formed in 2 mM Ca^2+ Ringer's solution. After break-in to the whole-cell configuration, voltage stimuli consisting of a 100-ms step to −100 mV followed by a 100-ms ramp from −100 to +100 mV were delivered every 5 s from the holding potential of +30 mV. After the currents reached a steady level (˜300 s for wild-type STIM1), the external solution was changed via a multibarrel local perfusion pipette to a high-Ca^2+ Ringer's containing (in mM) 130 NaCl, 4.5 KCl, 20 CaCl2, 1 MgCl2, 10 D-glucose, and 5 HEPES (pH 7.4 with NaOH). All data were leak-corrected using the current elicited in 20 mM Ca^2+ Ringer's+10 μM LaCl3 at the end of the each experiment. LaCl3 and 2-APB were added directly to parent solutions on the day of the experiment from 10 mM and 100 mM stocks in H2O and DMSO, respectively.
As a definitive test for CRAC channel activation, we conducted whole-cell patch clamp recordings from HEK 293 cells transiently transfected with myc-Orai1 and either YFP-STIM1 or YFP-CAD. In cells expressing full length YFP-STIM1, ICRAC appeared over several minutes following break-in, consistent with the typical slow activation seen in response to passive store depletion (FIG. 2D). […] In contrast, inward current was present from the moment of break-in in cells expressing YFP-CAD (FIG. 2E). This current was identified as ICRAC based on its dependence on extracellular Ca^2+, inward rectification, sequential enhancement and inhibition by 2-APB, and inhibition by La^3+ (FIG. 2E and FIG. 10 C, D). ICRAC was not observed at break-in in HEK 293 cells transfected with YFP or YFP-CAD in the absence of Orai1 (FIG. 2F), consistent with the low level of endogenous STIM1 and Orai1 in these cells. […] Inactivation was restored by addition of STIM1 residues carboxy-terminal to CAD.

Orai1 [4] = assay: Puncta formation of STIM1 variants by confocal microscopy in HEK 293 cells; assay type: cell-based; details: expressed alone in HEK 293 cells
Method: as §2
Quantitation of STIM1 and Orai1 Recruitment into Puncta. Colocalization of eGFP-Orai1 and mCh-STIM1 variants was analyzed from background-corrected confocal image pairs acquired before and after store depletion. Puncta have two defining characteristics: (1) because they are sites of accumulation, STIM1 and Orai1 fluorescence intensities in puncta are greater than the respective mean intensities measured across the entire cell, and (2) because STIM1 and Orai1 co-localize in puncta, their fluorescence covariance is high. […]

EE-Orai1-His8 = molecular target: T2, EE-Orai1-His8 (Homo sapiens, UniProt Q96D31); assay: GST pull-down assay with purified proteins; assay type: binding; details: in vitro
T2 construct: made in house; host or cells: Hi5 insect cells (baculovirus, pVL1393)
Method: GST Pull-down Assays. For GST pull-down assays, either GST-CAD (0.16 μM) or GST (0.15 μM) was incubated with EE-Orai1-His8 (0.1 μM) for 1 h in buffer containing (in mM): 20 Tris-HCl (pH 8.0), 150 NaCl, 20 imidazole, and 1 DTT with protease inhibitors. After addition of glutathione sepharose the beads were centrifuged, washed with the above buffer, and the precipitated proteins were eluted with boiling SDS and analyzed by SDS-PAGE and Western blotting.
CAD Binds Directly to Orai1. To test for direct binding between the CAD and Orai1 we generated a GST-tagged CAD peptide in E. coli and an Orai1 protein containing C-terminal octa-histidine and N-terminal EEYMPME (“EE”) tags in insect Hi5 cells. We incubated purified GST-CAD or GST alone with purified EE-Orai1-His8 and used glutathione beads to precipitate the complexes.

Orai1 [5] = molecular target: T1, Orai1; assay: Intracellular localization of YFP-CAD in HEK 293 cells; assay type: cell-based; set-up: expressed in transfected cells; host or cells: HEK 293; details: with myc-Orai1
Method: as §2
CAD Associates with Orai1 in vivo and in vitro. Because cytosolic CAD is a potent activator of Orai1 channels and is not associated with the ER, we hypothesized that CAD binds to Orai1. To test this idea, we first expressed YFP-CAD with or without myc-Orai1 in HEK 293 cells and examined its intracellular localization. […] GFP-myc-Orai1 was detected in the immunoprecipitates from cells co-expressing CAD and Orai1 but not from cells expressing CAD or Orai1 alone (FIG. 3B).

endogenous CRAC channels = assay: NFAT-luciferase assay in HEK 293T (NFAT-Luc) cells; assay type: cell-based; details: HEK 293T NFAT-luc cells transfected with STIM1 construct; PMA (1 μM) alone
Method: NFAT-luciferase Assays. HEK 293T cells were co-transfected with the indicated constructs and an NFAT reporter gene (firefly luciferase gene C-terminal to 4×-NFAT site from the IL-2 gene). Cotransfection with the Renilla luciferase (pRLTK) gene driven by the TK promoter was used to control for cell number and transfection efficiency. After 12-18 h, cells were treated with a control DMSO solution (mock), PMA (1 μM), or PMA plus TG (1 μM) for 8 h. Assays were performed using the Dual Luciferase Reporter assay system (Promega). For each condition, luciferase activity was measured with 4 samples taken from duplicate wells using a 96-well automated luminometer (Turner Biosystems). Results are represented as the ratio of firefly to Renilla luciferase activity.
Identifying a Minimal Cytosolic Region of STIM1 that Opens the CRAC Channel. To identify the CRAC-activating domain of STIM1, we first tested a series of soluble cytosolic STIM1 fragments for their ability to activate an NFAT-dependent luciferase reporter gene (NFAT-luc). A series of constructs were generated by progressive truncation of the full-length cytosolic region of STIM1 (FIG. 2A; STIM1234-685; CT-STIM1) and were transiently expressed in a HEK 293T cell line containing NFAT-luc. […]

CRAC channels = molecular target: T3, CRAC channels (Homo sapiens, UniProt Q96D31); assay: [Ca2+]i imaging in HEK 293 cells expressing STIM1 fragment and Orai1; assay type: cell-based
T3 construct: expressed in transfected cells; host or cells: HEK 293
Method: Ca^2+ Imaging. For FIG. 2, cells were loaded at 37° C. in DMEM with 1 μM fura-2/AM for 30 min. Ratiometric Ca2+ imaging was performed at 340 and 380 nm in 2 mM Ca2+ Ringer's solution with a Nikon Eclipse 2000-U inverted microscope equipped with a fluorescent arc lamp, excitation filter wheel, and a Hamamatsu Orca CCD camera. Images were collected using Openlab (Improvision) and analyzed using Igor Pro.
To determine if CAD activates store operated Ca^2+ influx in cells, we measured [Ca^2+]i in HEK 293 cells expressing CAD and Orai1.

Orai1 [6] = molecular target: T1, Orai1; assay: Co-immunoprecipitation with Orai1 in HEK 293T cells; assay type: binding; set-up: expressed in transfected cells; host or cells: HEK 293; details: 150 mM salt, 1% Triton X-100
Method: Immunoprecipitation and Immunoblot Analysis. Transfected HEK 293T cells (12-24 h) were washed with PBS and lysed in 50 mM Tris-HCl pH 7.5, 150 mM NaCl, 1% Triton X-100, and protease inhibitors. Lysates were spun at 12,000 rpm for 10 min, and the supernatant was incubated with anti-Flag M2 agarose beads (Sigma), or anti-myc or -HA antibody followed by IgG agarose beads (Pierce). Lysates and immunoprecipitates were subjected to SDS-PAGE, probed with HRP-conjugated secondary antibody and detected by enhanced chemiluminescence (Pierce).
CAD Associates with Orai1 in vivo and in vitro. Because cytosolic CAD is a potent activator of Orai1 channels and is not associated with the ER, we hypothesized that CAD binds to Orai1. To test this idea, we first expressed YFP-CAD with or without myc-Orai1 in HEK 293 cells and examined its intracellular localization. […] To provide additional evidence that CAD and Orai1 are part of the same protein complex we expressed Flag-tagged CAD and GFP-tagged Orai1 in HEK 293T cells and immunoprecipitated CAD with anti-Flag antibodies. GFP-myc-Orai1 was detected in the immunoprecipitates from cells co-expressing CAD and Orai1 but not from cells expressing CAD or Orai1 alone (FIG. 3B).
Thus, CAD and Orai1 form a protein complex in mammalian cells.

T1 sequence (Q96D31 whole entry): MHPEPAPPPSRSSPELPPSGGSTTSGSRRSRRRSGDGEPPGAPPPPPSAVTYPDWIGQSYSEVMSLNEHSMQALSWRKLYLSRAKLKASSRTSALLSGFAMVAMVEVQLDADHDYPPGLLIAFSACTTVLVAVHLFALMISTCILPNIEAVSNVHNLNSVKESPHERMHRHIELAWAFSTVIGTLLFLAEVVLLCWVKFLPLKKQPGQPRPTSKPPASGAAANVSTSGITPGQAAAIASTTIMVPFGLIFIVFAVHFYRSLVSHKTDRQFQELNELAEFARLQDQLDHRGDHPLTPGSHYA
T3 sequence (Q96D31 whole entry, the tested form may be a part): as the sequence (Q96D31 whole entry) above
T2 sequence (Q96D31 whole entry): as above

Substance: STIM11-448: STIM1 truncated from the C-terminus to the end of the CAD
- Ca2+ entry (SOCE) after store depletion (Orai1 [1]): activated Ca^2+ entry
- puncta formation with Orai1 after store depletion (Orai1 [2]): formed puncta with Orai1

Substance: STIM11-440: STIM1 1-448 with the final 8 aa deleted
- Ca2+ entry (SOCE) after store depletion (Orai1 [1]): failed to activate SOCE
- puncta formation with Orai1 after store depletion (Orai1 [2]): retained the ability to form puncta and cluster Orai1

Substance: GST-CAD: GST-tagged CAD peptide generated in E. coli
- co-precipitation of purified Orai1 with glutathione beads (EE-Orai1-His8): co-precipitated Orai1

Substance: STIM1 C437G: STIM1 C437G mutant
- Ca2+ entry (SOCE) after store depletion (Orai1 [1]): only marginally activated SOCE
- puncta formation with Orai1 after store depletion (Orai1 [2]): formed pronounced puncta with Orai1

Substance: CT-STIM1: full-length cytosolic region of STIM1 (aa 234-685) [reference compound]
- activation of NFAT-dependent luciferase reporter gene (NFAT-luc) (endogenous CRAC channels): did not activate
- resting [Ca2+]i (CRAC channels; HEK 293T cells coexpressing construct and Orai1): did so
- [Ca2+]i / CRAC channel activation (CRAC channels; HEK 293 cells coexpressing construct and Orai1, no store depletion): did not elevate resting [Ca^2+]i
- co-immunoprecipitation with Orai1 (Orai1 [6]): unable to detect any interaction

More lines, main results first:

- puncta formation with Orai1 after store depletion (Orai1 [2]): colocalized in puncta
- ICRAC after store depletion (Orai1 [3]; HEK 293 cells coexpressing STIM1 variant and Orai1): activated ICRAC
Substance: STIM1-DK: STIM1 lacking the polybasic C-terminal domain (aa 672-685)
- puncta formation after store depletion (Orai1 [4]): failed to form puncta

- constitutive ICRAC (Orai1 [3]; HEK 293 cells cotransfected with construct and myc-Orai1, from break-in): constitutively active
Substance: YFP-CAD: YFP-tagged CAD expressed in HEK 293 cells
- localization on coexpression of Orai1 (Orai1 [5]): dramatic recruitment of YFP-CAD to the plasma membrane
